Series [1] has as its target GST-TIPT2 (TATA-binding protein-like factor-interacting protein, isoform 2) (mouse) (UniProt Q6P926).
The target of series [2] is T1, GST-TIPT2 (TIPT isoform 2) (mouse, UniProt Q6P926 1-205).
T1 sequence: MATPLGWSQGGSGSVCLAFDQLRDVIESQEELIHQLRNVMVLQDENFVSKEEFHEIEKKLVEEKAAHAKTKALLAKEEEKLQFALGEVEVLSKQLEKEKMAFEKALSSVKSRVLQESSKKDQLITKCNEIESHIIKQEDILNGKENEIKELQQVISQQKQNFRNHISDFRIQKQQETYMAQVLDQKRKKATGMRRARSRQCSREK
Particulars: protein: recombinant, tags: N-terminal GST.

Series [3] deals with T2, TBP (human, UniProt P20226 1-339). Conditions: protein: recombinant.
Series [4] concerns the target T2, TBP. Conditions: protein: recombinant; label: radiolabel.
For series [5], the target named is T1, GST-TIPT2 (TIPT isoform 2). Conditions: protein: recombinant; tags: N-terminal GST.
Series [6] has as its target T1, GST-TIPT2 (TIPT isoform 2). Conditions: protein: recombinant; tags: N-terminal GST; label: radiolabel.

Like-named read-outs stand apart in the source and are kept apart here.

T2 sequence (P20226 whole entry): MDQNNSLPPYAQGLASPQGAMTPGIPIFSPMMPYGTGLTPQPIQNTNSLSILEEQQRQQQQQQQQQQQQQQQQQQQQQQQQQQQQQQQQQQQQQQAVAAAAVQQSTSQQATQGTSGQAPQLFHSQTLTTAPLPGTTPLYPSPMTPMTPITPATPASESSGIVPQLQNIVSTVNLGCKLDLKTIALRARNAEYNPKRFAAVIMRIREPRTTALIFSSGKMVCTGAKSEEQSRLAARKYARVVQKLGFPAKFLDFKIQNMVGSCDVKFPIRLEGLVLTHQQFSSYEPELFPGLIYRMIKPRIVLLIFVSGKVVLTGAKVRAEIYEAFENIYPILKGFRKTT

Turning to “in vitro translated geminin (from UniProt O88513 1-206) (natural protein)”, in series [1], the luciferase reporter in U2OS cells: activation of the AdMLP, co-transfection of geminin with TIPT2 worked out at 11 fold; the luciferase reporter in U2OS cells: activation of the AdMLP, triple transfection of TBP, TIPT2 and geminin worked out at 16 fold.

B1: AdMLPm8 (dsDNA)
DNA 1: AAGGGGGGCTATAAAAGGGGTGGGG
DNA 2: CCCCACCCCTTTTATAGCCCCCCTT
With B1, the binding result in series [2] is reported as “binds”.

B2: AdMLPm9 (dsDNA)
DNA 1: AAGGGGGGCTATAAAAGGGGGTTTT
DNA 2: AAAACCCCCTTTTATAGCCCCCCTT
B2: the binding result in series [2] is given as “binds”.

B3: AdMLP (-40 to -16) (dsDNA)
DNA 1: AAGGGGGGCTATAAAAGGGGGTGGG
DNA 2: CCCACCCCCTTTTATAGCCCCCCTT
For the molecule B3, the binding result (with TBP [3]; in series [2]) was “binds” in each case.

B4: AdMLPm4 (dsDNA)
DNA 1: AAGGGGTTCTATAAAAGGGGGTGGG
DNA 2: CCCACCCCCTTTTATAGAACCCCTT
As for B4, the binding result in series [2] is given as “binds”.

B5: AdMLPm6 (dsDNA)
DNA 1: AAGGGGGGCTATAAAATTGGGTGGG
DNA 2: CCCACCCAATTTTATAGCCCCCCTT
On to B5, for which the binding result in series [2] is on record as “binds”.

B6: AdMLPm2 (dsDNA)
DNA 1: AATTGGGGCTATAAAAGGGGGTGGG
DNA 2: CCCACCCCCTTTTATAGCCCCAATT
In the case of B6, in series [2], the binding result is recorded as “binds”.

B7: AdMLPm1 (dsDNA)
DNA 1: AAGGGGGGCTGTAAAAGGGGGTGGG
DNA 2: CCCACCCCCTTTTACAGCCCCCCTT
On to B7, for which the binding result is “no binding” in the series with TBP [4] and “binds” in series [2] (label: radiolabel).

B8: AdMLPm5 (dsDNA)
DNA 1: AAGGGGGGTGATAAAAGGGGGTGGG
DNA 2: CCCACCCCCTTTTATCACCCCCCTT
Take B8: the binding result in series [5] is listed as “binds”.

B9: AdMLPm7 (dsDNA)
DNA 1: AAGGGGGGCTATAAAAGGTTGTGGG
DNA 2: CCCACAACCTTTTATAGCCCCCCTT
On to B9, for which the binding result in series [2] is given as “binds”.

B10: AdE4 (dsDNA)
DNA 1: GATCCGGAGTATATATAGGACCTTG
DNA 2: CAAGGTCCTATATATACTCCGGATC
With B10, the binding result in series [6] is “no binding”; in the series with TBP [3] (label: radiolabel) it was “binds”.

For the origin of these results see PMC2702275, “TIPT2 and geminin interact with basal transcription factors to synergize in transcriptional regulation”.
